Results on one molecule are retold here after PMC7489885 (Cell, 2020).

The target in this experiment is SARS-CoV-2 RBD (residues 319-541) with an N-terminal His6 tag (SARS-CoV-2, UniProt P0DTC2). Nature of the experiment: crystal structure.

B1: BD-236 Fab (Fab, V domains shown)
VH: EVQLVESGGGLIQPGGSLRLSCAASGITVSSNYMSWVRQAPGKGLEWVSVIYSGGSTDYADSVKGRFTISRDKSKNTLYLQMNSLRAEDTAVYYCARDLGEAGGMDVWGQGTTVTVSS
VL: AIQLTQSPSSLSASVGDRVTITCRASQGISSYLAWYQQKPGKAPKLLIYAASTLQSGVPSRFSGSGSGTDFTLTISSLQPEDFATYYCQQLNSYPPAFGGGTKVEIK
As for B1, the binding result is reported as “binds”.
